Data: article PMC9257163, “Fluorescence Detection of Cancer Stem Cell Markers Using a Sensitive Nano-Aptamer Sensor”

Legend:
CD133 (prominin-1) = biological target: T1, CD133 (prominin-1) (UniProt O43490 20-865); test: competition (FRET turn-on displacement of AuNPs-ssRNA); 0-1.539 uM CD133, 5 nM QD-aptamer; maximum recovery 68%; LOD 6.99 nM (not a Kd); QD-aptamers redispersed in PBS; sensor annealed from 95 °C to room temperature; binding buffer, pH and temperature not stated in the material; settings: label: CdSe/ZnS QD on aptamer 5' end; AuNP (25 nm) on ssRNA 5' end; partially complementary RNA duplex; about 7 aptamers per QD; ssRNA displaced by protein
T1 sequence: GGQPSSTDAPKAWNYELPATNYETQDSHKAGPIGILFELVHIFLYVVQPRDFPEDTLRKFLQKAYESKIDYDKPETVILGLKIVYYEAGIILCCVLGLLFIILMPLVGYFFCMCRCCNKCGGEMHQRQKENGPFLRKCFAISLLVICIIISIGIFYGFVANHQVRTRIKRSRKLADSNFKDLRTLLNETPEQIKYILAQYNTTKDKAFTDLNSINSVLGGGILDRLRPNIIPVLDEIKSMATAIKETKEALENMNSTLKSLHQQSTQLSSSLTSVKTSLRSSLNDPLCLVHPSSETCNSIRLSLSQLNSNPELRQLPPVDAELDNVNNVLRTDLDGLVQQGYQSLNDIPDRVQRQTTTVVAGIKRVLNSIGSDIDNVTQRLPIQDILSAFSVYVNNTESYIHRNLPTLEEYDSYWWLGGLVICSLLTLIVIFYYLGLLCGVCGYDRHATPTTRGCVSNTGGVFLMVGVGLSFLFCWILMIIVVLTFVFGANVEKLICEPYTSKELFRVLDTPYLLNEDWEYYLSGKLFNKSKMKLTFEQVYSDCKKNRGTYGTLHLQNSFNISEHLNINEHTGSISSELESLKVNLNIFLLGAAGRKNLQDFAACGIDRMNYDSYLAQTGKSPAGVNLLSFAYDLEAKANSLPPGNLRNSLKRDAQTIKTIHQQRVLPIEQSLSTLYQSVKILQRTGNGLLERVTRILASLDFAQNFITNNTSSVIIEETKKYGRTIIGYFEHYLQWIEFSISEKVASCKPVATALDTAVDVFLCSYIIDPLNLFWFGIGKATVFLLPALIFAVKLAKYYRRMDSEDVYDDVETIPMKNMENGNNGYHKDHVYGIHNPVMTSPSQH

IL-1α = biological target: T2, IL-1α (UniProt P01583 113-271); test: competition (FRET turn-on displacement of AuNPs-ssRNA); 2 uM protein; QD-aptamers redispersed in PBS; sensor annealed from 95 °C to room temperature; binding buffer, pH and temperature not stated in the material; settings: label: CdSe/ZnS QD on aptamer 5' end; AuNP (25 nm) on ssRNA 5' end; partially complementary RNA duplex; about 7 aptamers per QD; ssRNA displaced by protein
T2 sequence: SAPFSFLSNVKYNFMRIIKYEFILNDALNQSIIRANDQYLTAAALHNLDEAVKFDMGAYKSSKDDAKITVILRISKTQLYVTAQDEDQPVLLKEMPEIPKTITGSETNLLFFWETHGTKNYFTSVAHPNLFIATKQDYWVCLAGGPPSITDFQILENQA

TGF-β1 = TGF-β1 (UniProt P01137 279-390); test: as above; settings: chain copies: 2; label: CdSe/ZnS QD on aptamer 5' end; AuNP (25 nm) on ssRNA 5' end; partially complementary RNA duplex; about 7 aptamers per QD; ssRNA displaced by protein
EGFR = EGFR (UniProt P00533 25-645); test: as above; settings: chain copies: 2; label: CdSe/ZnS QD on aptamer 5' end; AuNP (25 nm) on ssRNA 5' end; partially complementary RNA duplex; about 7 aptamers per QD; ssRNA displaced by protein

Chain of TGF-β1 (P01137 279-390): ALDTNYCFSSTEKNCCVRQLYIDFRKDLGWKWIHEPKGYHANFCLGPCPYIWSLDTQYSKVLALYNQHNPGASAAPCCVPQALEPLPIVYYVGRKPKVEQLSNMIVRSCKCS

B1: CD133 aptamer sensor (QD-aptamer hybridized to AuNPs-ssRNA) (mixed)
RNA 1: CCCUCCUACAUAGGG
RNA 2: CCCUAUG
modifications: 5'-NH2 on aptamer; 5'-SH on ssRNA
CD133 (prominin-1)
  binding result: binds
IL-1α
  binding result: no binding
TGF-β1
  binding result: no binding
EGFR
  binding result: no binding
